Literature values in patent publication US10716757B2, “Liposomal formulation for the oral hepatic delivery of drugs” (Universität Heidelberg, priority 2015, dated 2020).

Key:
[1] = Myrcludex B per se, no liposomes
[2] = film method followed by extrusion, reference [17]

| Compound | oral bioavailability [1] [%] | encapsulation efficiency [2] |
| --- | --- | --- |
| Myr-HBVpreS/2-48 [Myrcludex B] | < 1 |  |
| C[C@@H](O)[C@@H]1NC(=O)[C@H](CCCCN)NC(=O)[C@@H](Cc2c[nH]c3ccccc23)NC(=O)[C@H](Cc2ccccc2)NC(=O)[C@@H](NC(=O)[C@H](N)Cc2ccccc2)CSSC[C@@H](C(=O)N[C@H](CO)[C@@H](C)O)NC1=O [octreotide] |  | 13.0 % (m/m) |
